# Measurements from patent US20250186614A1, “COMPACT DRUG RESPONSIVE DOMAINS FOR REGULATION OF FUNCTION/ABUNDANCE AND DELIVERY OF POLYPEPTIDE PAYLOADS” (OBSIDIAN THERAPEUTICS, INC., priority 2022, published 2025).
# System: Jurkat cells
# Test: Tacrolimus dose response of FKBP13-AcGFP-mCherry constructs stably transduced into Jurkat cells, GFP MFI by flow cytometry
# Format: cell-based
# Design: Basal: unit not given here
# Method in brief: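 Jurkat E6-1 cells lentivirally transduced with FKBP13-AcGFP-mCherry constructs to 10-25% mCherry+ (day 5) were dosed with tacrolimus. GFP geometric MFI in mCherry+ cells was measured by flow cytometry and fitted to dose-response curves.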
# [1] = tacrolimus, Jurkat cells stably transduced, Table 6
# [2] = tacrolimus, Jurkat cells, Table 13
molecule,measurement,setting,value
"FKBP-142: FKBP13 DRD Q72R, Q84E, A117W, T64G; SEQ ID NO: 92 (protein, Description of sequence: FKBP13-AcGFP-mCherry Fusion; Construct Name: FKBP-142; FKBP13 DRD in Construct : FKBP13 (mutated to match FKBP12 active site Q72R Q84E A117W) (DRD T64G)) HCPIKSRKGDVLHMHYTGKLEDGGEFDSSLPRNQPFVFSLGTGEVIKGWDQGLLGMCEGEKRKLVIPSELGYGERGWPPKIPGGATLVFEVELLKIER",Fold Change,[1],33.42
"FKBP-264: FKBP13 DRD-AcGFP construct of Table 10 (protein, Description of sequence: Construct Name: FKBP-264; Mutation(s): Q72R S79W Q84R A117W DRD V85R) HCPIKSRKGDVLHMHYTGKLEDGTEFDSSLPRNQPFVFWLGTGRRIKGWDQGLLGMCEGEKRKLVIPSELGYGERGWPPKIPGGATLVFEVELLKIER",Basal,"FIG. 45, BR1 (Biorep 1)",127
same,FC,"FIG. 45, BR1 (Biorep 1)",37.06
same,At 10 uM,"FIG. 45, BR1 (Biorep 1)",4706
same,Fold Change,[2],37.08
"FKBP-118: FKBP13 DRD Q72R, Q84E, A117H, V85R; SEQ ID NO: 68 (protein, Description of sequence: FKBP13-AcGFP-mCherry Fusion; Construct Name: FKBP-118; FKBP13 DRD in Construct : FKBP13 (mutated to match FKBP12 active site Q72R Q84E A117H) (DRD V85R)) HCPIKSRKGDVLHMHYTGKLEDGTEFDSSLPRNQPFVFSLGTGERIKGWDQGLLGMCEGEKRKLVIPSELGYGERGHPPKIPGGATLVFEVELLKIER",Fold Change,[1],12.95
"FKBP-150: FKBP13 DRD Q72R, Q84E, A117H, E61G, G124P; SEQ ID NO: 100 (protein, Description of sequence: FKBP13-AcGFP-mCherry Fusion; Construct Name: FKBP-150; FKBP13 DRD in Construct : FKBP13 (mutated to match FKBP12 active site Q72R Q84E A117H) (DRD E61G G124P)) HCPIKSRKGDVLHMHYTGKLGDGTEFDSSLPRNQPFVFSLGTGEVIKGWDQGLLGMCEGEKRKLVIPSELGYGERGHPPKIPGPATLVFEVELLKIER",Fold Change,[1],21.15
"FKBP-144: FKBP13 DRD Q72R, Q84E, A117H, D50R, E98M; SEQ ID NO: 94 (protein, Description of sequence: FKBP13-AcGFP-mCherry Fusion; Construct Name: FKBP-144; FKBP13 DRD in Construct : FKBP13 (mutated to match FKBP12 active site Q72R Q84E A117H) (DRD D50R E98M)) HCPIKSRKGRVLHMHYTGKLEDGTEFDSSLPRNQPFVFSLGTGEVIKGWDQGLLGMCMGEKRKLVIPSELGYGERGHPPKIPGGATLVFEVELLKIER",Fold Change,[1],1.24
"FKBP-147: FKBP13 DRD Q72R, Q84E, A117H, T64R, S108G, E137F; SEQ ID NO: 97 (protein, Description of sequence: FKBP13-AcGFP-mCherry Fusion; Construct Name: FKBP-147; FKBP13 DRD in Construct : FKBP13 (mutated to match FKBP12 active site Q72R Q84E A117H) (DRD T64R S108G E137F)) HCPIKSRKGDVLHMHYTGKLEDGREFDSSLPRNQPFVFSLGTGEVIKGWDQGLLGMCEGEKRKLVIPGELGYGERGHPPKIPGGATLVFEVELLKIFR",Fold Change,[1],26.65
"FKBP-119: FKBP13 DRD Q72R, Q84E, A117W, K101W; SEQ ID NO: 69 (protein, Description of sequence: FKBP13-AcGFP-mCherry Fusion; Construct Name: FKBP-119; FKBP13 DRD in Construct : FKBP13 (mutated to match FKBP12 active site Q72R Q84E A117W) (DRD K101W )) HCPIKSRKGDVLHMHYTGKLEDGTEFDSSLPRNQPFVFSLGTGEVIKGWDQGLLGMCEGEWRKLVIPSELGYGERGWPPKIPGGATLVFEVELLKIER",Fold Change,[1],31.91
"FKBP-145: FKBP13 DRD Q72R, Q84E, A117H, H41S, E61D; SEQ ID NO: 95 (protein, Description of sequence: FKBP13-AcGFP-mCherry Fusion; Construct Name: FKBP-145; FKBP13 DRD in Construct : FKBP13 (mutated to match FKBP12 active site Q72R Q84E A117H) (DRD H41S E61D)) SCPIKSRKGDVLHMHYTGKLDDGTEFDSSLPRNQPFVFSLGTGEVIKGWDQGLLGMCEGEKRKLVIPSELGYGERGHPPKIPGGATLVFEVELLKIER",Fold Change,[1],11.05
"FKBP-143: FKBP13 DRD Q72R, Q84G, A117H, P43R; SEQ ID NO: 93 (protein, Description of sequence: FKBP13-AcGFP-mCherry Fusion; Construct Name: FKBP-143; FKBP13 DRD in Construct : FKBP13 (mutated to match FKBP12 active site Q72R Q84G A117H) (DRD P43R)) HCRIKSRKGDVLHMHYTGKLEDGTEFDSSLPRNQPFVFSLGTGGVIKGWDQGLLGMCEGEKRKLVIPSELGYGERGHPPKIPGGATLVFEVELLKIER",Fold Change,[1],14.97
"FKBP-262: FKBP13 DRD-AcGFP construct of Table 10 (protein, Description of sequence: Construct Name: FKBP-262; Mutation(s): Q72R Q84E A117W V85R DRD P43R K135Y) HCRIKSRKGDVLHMHYTGKLEDGTEFDSSLPRNQPFVFSLGTGERIKGWDQGLLGMCEGEKRKLVIPSELGYGERGWPPKIPGGATLVFEVELLYIER",Basal,"FIG. 49, BR1 (Biorep 1)",59.5
same,FC,"FIG. 49, BR1 (Biorep 1)",66.64
same,At 10 uM,"FIG. 49, BR1 (Biorep 1)",3965
same,Basal,"FIG. 49, BR2 (Biorep 2)",73.7
same,FC,"FIG. 49, BR2 (Biorep 2)",52.21
same,At 10 uM,"FIG. 49, BR2 (Biorep 2)",3848
same,FC,"tacrolimus, FIGS. 31 and 32",73
same,Fold Change,[2],73
"FKBP-148: FKBP13 DRD Q72R, Q84E, A117H, D62N, D67N, D90N, M96G, E130K; SEQ ID NO: 98 (protein, Description of sequence: FKBP13-AcGFP-mCherry Fusion; Construct Name: FKBP-148; FKBP13 DRD in Construct : FKBP13 (mutated to match FKBP12 active site Q72R Q84E A117H) (DRD D62N D67N D90N M96G E130K)) HCPIKSRKGDVLHMHYTGKLENGTEFNSSLPRNQPFVFSLGTGEVIKGWNQGLLGGCEGEKRKLVIPSELGYGERGHPPKIPGGATLVFKVELLKIER",Fold Change,[1],1.09
"FKBP-120: FKBP13 DRD Q72R, Q84E, A117H, K101W; SEQ ID NO: 70 (protein, Description of sequence: FKBP13-AcGFP-mCherry Fusion; Construct Name: FKBP-120; FKBP13 DRD in Construct : FKBP13 (mutated to match FKBP12 active site Q72R Q84E A117H) (DRD K101W)) HCPIKSRKGDVLHMHYTGKLEDGTEFDSSLPRNQPFVFSLGTGEVIKGWDQGLLGMCEGEWRKLVIPSELGYGERGHPPKIPGGATLVFEVELLKIER",Fold Change,[1],30.53
"FKBP-146: FKBP13 DRD Q72R, Q84E, A117H, L104S, I136L; SEQ ID NO: 96 (protein, Description of sequence: FKBP13-AcGFP-mCherry Fusion; Construct Name: FKBP-146; FKBP13 DRD in Construct : FKBP13 (mutated to match FKBP12 active site Q72R Q84E A117H) (DRD L104S I136L)) HCPIKSRKGDVLHMHYTGKLEDGTEFDSSLPRNQPFVFSLGTGEVIKGWDQGLLGMCEGEKRKSVIPSELGYGERGHPPKIPGGATLVFEVELLKLER",Fold Change,[1],1.19
"FKBP-149: FKBP13 DRD Q72R, Q84E, A117H, T64Q, L94G; SEQ ID NO: 99 (protein, Description of sequence: FKBP13-AcGFP-mCherry Fusion; Construct Name: FKBP-149; FKBP13 DRD in Construct : FKBP13 (mutated to match FKBP12 active site Q72R Q84E A117H) (DRD T64Q L94G)) HCPIKSRKGDVLHMHYTGKLEDGQEFDSSLPRNQPFVFSLGTGEVIKGWDQGLGGMCEGEKRKLVIPSELGYGERGHPPKIPGGATLVFEVELLKIER",Fold Change,[1],39.28
"FKBP-260: FKBP13 DRD-AcGFP construct of Table 10 (protein, Description of sequence: Construct Name: FKBP-260; Mutation(s): Q72R Q84E A117W V85R DRD K101N) HCPIKSRKGDVLHMHYTGKLEDGTEFDSSLPRNQPFVFSLGTGERIKGWDQGLLGMCEGENRKLVIPSELGYGERGWPPKIPGGATLVFEVELLKIER",FC,"tacrolimus, FIGS. 31 and 32",51
same,Fold Change,[2],51
